According to patent EP1514558A1 (Max-Planck-Gesellschaft zur Förderung der Wissenschaften …, dated 2005):

Target: HA-tagged MARK2, baculovirus-expressed in Sf9 cells (Rattus norvegicus (Rat), UniProt O08679 1-722)
Assay: cell-based or functional assay

Sequence of HA-tagged MARK2, baculovirus-expressed in Sf9 cells (O08679 other isoform, or with tags, fused parts or gaps limits assumed, form in doubt): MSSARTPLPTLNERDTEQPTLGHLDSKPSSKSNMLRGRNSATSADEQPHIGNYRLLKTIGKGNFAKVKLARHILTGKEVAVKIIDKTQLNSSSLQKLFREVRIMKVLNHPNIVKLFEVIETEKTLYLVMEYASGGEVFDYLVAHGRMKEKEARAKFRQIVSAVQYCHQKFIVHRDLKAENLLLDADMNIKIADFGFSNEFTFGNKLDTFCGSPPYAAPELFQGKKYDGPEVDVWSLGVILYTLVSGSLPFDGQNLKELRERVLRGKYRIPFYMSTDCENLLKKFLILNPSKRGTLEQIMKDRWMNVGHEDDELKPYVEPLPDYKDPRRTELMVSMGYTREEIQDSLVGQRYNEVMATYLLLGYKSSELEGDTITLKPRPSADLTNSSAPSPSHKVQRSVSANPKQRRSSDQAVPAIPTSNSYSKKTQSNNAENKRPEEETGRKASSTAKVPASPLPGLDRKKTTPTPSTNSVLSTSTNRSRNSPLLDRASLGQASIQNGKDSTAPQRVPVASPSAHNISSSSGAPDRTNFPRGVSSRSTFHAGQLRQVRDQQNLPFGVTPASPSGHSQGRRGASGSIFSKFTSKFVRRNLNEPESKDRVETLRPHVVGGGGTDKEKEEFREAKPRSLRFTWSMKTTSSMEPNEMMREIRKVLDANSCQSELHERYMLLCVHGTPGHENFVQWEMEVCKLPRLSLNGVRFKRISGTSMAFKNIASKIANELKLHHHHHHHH

B1: myc-tagged MARKK, baculovirus-expressed in Sf9 cells (enzyme, not shown: small tags and cut ends)
chain: MGHHHHHHHHHHSSGHIEGRHMPSTNRAGSLKDPEIAELFFKEDPEKLFTDLREIGHGSFGAVYFARDVRTNEVVAIKKMSYSGKQSTEKWQDIIKEVKFLQRIKHPNSIEYKGCYLREHTAWLVMEYCLGSASDLLEVHKKPLQEVEIAAITHGALQGLAYLHSHTMIHRDIKAGNILLTEPGQVKLADFGSASMASPANSFVGTPYWMAPEVILAMDEGQYDGKVDVWSLGITCIELAERKPPLFNMNAMSALYHIAQNESPTLQSNEWSDYFRNFVDSCLQKIPQDRPTSEELLKHMFVLRERPETVLIDLIQRTKDAVRELDNLQYRKMKKLLFQEAHNGPAVEAQEEEEEQDHGGGRTGTVNSVGSNQSIPSMSISASSQSSSVNSLPDASDDKSELDMMEGDHTVMSNSSVIHLKPEEENYQEEGDPRTRASDPQSPPQVSRHKSHYRNREHFATIRTASLVTRQMQEHEQDSELREQMSGYKRMRRQHQKQLMTLENKLKAEMDEHRLRLDKDLETQRNNFAAEMEKLIKKHQASMEKEAKVMANEEKKFQQHIQAQQKKELNSFLESQKREYKLRKEQLKEELNENQSTPKKEKQEWLSKQKENIQHFQAEEEANLLRRQRQYLELECRRFKRRMLLGRHNLEQDLVREELNKRQTQKDLEHAMLLRQHESMQELEFRHLNTIQKMRCELIRLQHQTELTNQLEYNKRRERELRRKHVMEVRQQPKSLKSKELQIKKQFQDTCKIQTRQYKALRNHLLETTPKSEHKAVLKRLKEEQTRKLAILAEQYDHSINEMLSTQALRLDEAQEAECQVLKMQLQQELELLNAYQSKIKMQAEAQHDRELRELEQRVSLRRALLEQKIEEEMLALQNERTERIRSLLERQAREIEAFDSESMRLGFSNMVLSNLSPEAFSHSYPGASSWSHNPTGGSGPHWGHPMGGTPQAWGHPMQGGPQPWGHPSGPMQGVPRGSSIGVRNSPQALRRTASGGRTEQGMSRSTSVTSQISNGSHMSYT
  activity of immunoprecipitated MARK2 (phosphorylation of TR1) on co-expression in Sf9 cells: ~3 fold
